Article PMC3641136

B1: neuronal glycine transporter 2 (GlyT2), wild type (natural protein)
chain: MDCSAPKEMNKPPTNILEATVPGHRDSPRAPRTSPEQDLPAAAPAAAVQPPRVPRSASTGAQTFQSADARACEAQRPGVGFCKLSSPQAQATSAALRDLSEGHSAQANPPSGAAGAGNALHCKIPALRGPEEDENVSVGKGTLEHNNTPAVGWVNMSQSTVVLGTDGIASVLPGSVATTTIPEDEQGDENKARGNWSSKLDFILSMVGYAVGLGNVWRFPYLAFQNGGGAFLIPYLMMLALAGLPIFFLEVSLGQFASQGPVSVWKAIPALQGCGIAMLIISVLIAIYYNVIICYTLFYLFASFVSVLPWGSCNNPWNTPECKDKTKLLLDSCVIGDHPKIQIKNSTFCMTAYPNLTMVNFTSQANKTFVSGSEEYFKYFVLKISAGIEYPGEIRWPLAFCLFLAWVIVYASLAKGIKTSGKVVYFTATFPYVVLVILLIRGVTLPGAGAGIWYFITPKWEKLTDATVWKDAATQIFFSLSAAWGGLITLSSYNKFHNNCYRDTLIVTCTNSATSIFAGFVIFSVIGFMANERKVNIENVADQGPGIAFVVYPEALTRLPLSPFWAIIFFLMLLTLGLDTMFATIETIVTSISDEFPKYLRTHKPVFTLGCCICFFIMGFPMITQGGIYMFQLVDTYAASYALVIIAIFELVGISYVYGLQRFCEDIEMMIGFQPNIFWKVCWAFVTPTILTFILCFSFYQWEPMTYGSYRYPNWSMVLGWLMLACSVIWIPIMFVIKMYLAPGRFIERLKLVCSPQPDWGPFLAQHRGERYKNMIDPLGTSSLGLKLPVKDLELGTQC
modifications: N-glycans on asparagines 345, 355, 360 and 366; the CNX-bound form is the 75 kDa under-glycosylated, EndoH-sensitive precursor

Molecular target: calnexin (CNX), endogenous in COS7 cells
Assay: sequential co-immunoprecipitation (CNX then GlyT2 antibodies), densitometry of fluorograms
Conditions: 15 min [35S]methionine/cysteine pulse, 30 min chase, n = 3, parent: est. 100, read off a plot

Point of comparison: “neuronal glycine transporter 2 (GlyT2), wild type (from UniProt P58295) N1”, percent of parent 69 % of wtGlyT2. Against it:
- neuronal glycine transporter 2 (GlyT2), wild type (from UniProt P58295) N23 — lower, 62 % of wtGlyT2
- neuronal glycine transporter 2 (GlyT2), wild type (from UniProt P58295) N123 — lower, 35 % of wtGlyT2
- neuronal glycine transporter 2 (GlyT2), wild type (from UniProt P58295) N13 — higher, 85 % of wtGlyT2
- neuronal glycine transporter 2 (GlyT2), wild type (from UniProt P58295) N3 — higher, 72 % of wtGlyT2
- neuronal glycine transporter 2 (GlyT2), wild type (from UniProt P58295) N234 — lower, 48 % of wtGlyT2
- neuronal glycine transporter 2 (GlyT2), wild type (from UniProt P58295) N2 — lower, 62 % of wtGlyT2
- neuronal glycine transporter 2 (GlyT2), wild type (from UniProt P58295) N345D; N355D; N360D; N366D — higher, 74 % of wtGlyT2
- neuronal glycine transporter 2 (GlyT2), wild type (from UniProt P58295) N366D — lower, 51 % of wtGlyT2

Molecular target: calnexin (CNX), endogenous in COS7 cells (African green monkey (endogenous in COS7))
Assay: co-IP; COS7 cells pulse-labeled 15 min with [35S]methionine/cysteine and chased; sequential immunoprecipitation with anti-CNX, then anti-GlyT2 antibodies (1% CHAPS); SDS-PAGE, fluorography, densitometry; also after treatment of cells with tunicamycin, castanospermine, deoxynojirimycin, deoxymannojirimycin, kifunensin, or at 45°C
Conditions: not given

Work on B1 yielded a half-life of the complex (pulse-chase) of 60 min.
